What was measured:
[1] = target: T1, hu_CXCR2_N-term (1-17)-BSA (human; bovine, coupled to carrier protein BSA; C-terminal cysteine introduced to enable coupling); assay: ELISA, coated peptide-BSA, IgG
T1 construct: Synthetic linear peptide chemically coupled to the carrier; also called CXCR2_aa1-17_BSA; CXCR2 aa1-17 BSA
Protocol: (§1) 384-well Maxisorp plates (Nunc; Cat. #460518) were coated with respective CXCR2 and control peptides coupled either to BSA or Transferrin (TRF) at 1-5 μg/mL and incubated o/n at 4° C. […] After three washing steps, antibodies were added at 5-10 μg/mL and titrated in some experiments. Antibodies were incubated 1 h at room temperature and plates were subsequently washed. Binding of anti-CXCR2 antibodies was detected by using alkaline phosphatase-conjugated anti-human IgG, (Dianova, Cat #109-055-097). AttoPhos fluorescence substrate (Roche, Cat #1484281) was added according to instructions of the manufacturer and fluorescence was measured (excitation at 430 nm, emission at 535 nm) using a microplate reader.

[2] = target: T2, N-terminal peptide aa1-48, BSA-coupled (human; bovine, coupled to carrier protein BSA; C-terminal cysteine introduced to enable coupling); assay: ELISA, coated peptide-BSA, IgG
T2 construct: also called CXCR2 aa1-48 BSA
T2 sequence (P02769 25-607 limits assumed): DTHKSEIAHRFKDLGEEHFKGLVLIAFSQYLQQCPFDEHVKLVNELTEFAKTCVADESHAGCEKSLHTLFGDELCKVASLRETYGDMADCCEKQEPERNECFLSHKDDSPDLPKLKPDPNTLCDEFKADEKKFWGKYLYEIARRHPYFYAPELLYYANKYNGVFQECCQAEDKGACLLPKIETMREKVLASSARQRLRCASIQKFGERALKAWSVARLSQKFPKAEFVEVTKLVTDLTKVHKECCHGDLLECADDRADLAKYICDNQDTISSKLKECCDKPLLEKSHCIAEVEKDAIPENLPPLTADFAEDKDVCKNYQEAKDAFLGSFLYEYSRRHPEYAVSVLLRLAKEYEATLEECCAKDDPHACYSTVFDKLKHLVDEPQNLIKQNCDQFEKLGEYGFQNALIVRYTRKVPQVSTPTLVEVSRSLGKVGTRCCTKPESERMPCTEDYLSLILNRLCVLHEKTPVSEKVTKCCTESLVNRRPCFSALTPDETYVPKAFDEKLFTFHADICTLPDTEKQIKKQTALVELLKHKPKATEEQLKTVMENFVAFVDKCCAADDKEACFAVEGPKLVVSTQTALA
Protocol: as §1

[3] = target: T3, ECL3 peptide aa273-295, BSA-coupled (human; bovine, coupled to carrier protein BSA; C-terminal cysteine introduced to enable coupling); assay: ELISA, coated peptide-BSA, IgG
T3 construct: also called CXCR2 aa273-295 BSA; peptides representing the extracellular domain 3
T3 sequence (peptide, as listed by the source limits assumed, chain 1 of 2): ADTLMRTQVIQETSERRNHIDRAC
T3 sequence (P02769 25-607 limits assumed, chain 2 of 2): as the sequence (P02769 25-607 limits assumed) above
Protocol: as §1

human CXCR2 [4] = target: T4, human CXCR2 (human, UniProt P25025 1-360); assay: FACS, CXCR2 CHO Flp-In cells, IgG
T4 construct: Expressed on Flp-In CHO cells (FACS, Fab-ZAP, ADCC, CDC) or on bought PathHunter CHO cells (beta-arrestin assay); the construct in the PathHunter cells is not described; also called chemokine receptor CXCR2; CXCR2 CHO Flp-In cells
T4 sequence: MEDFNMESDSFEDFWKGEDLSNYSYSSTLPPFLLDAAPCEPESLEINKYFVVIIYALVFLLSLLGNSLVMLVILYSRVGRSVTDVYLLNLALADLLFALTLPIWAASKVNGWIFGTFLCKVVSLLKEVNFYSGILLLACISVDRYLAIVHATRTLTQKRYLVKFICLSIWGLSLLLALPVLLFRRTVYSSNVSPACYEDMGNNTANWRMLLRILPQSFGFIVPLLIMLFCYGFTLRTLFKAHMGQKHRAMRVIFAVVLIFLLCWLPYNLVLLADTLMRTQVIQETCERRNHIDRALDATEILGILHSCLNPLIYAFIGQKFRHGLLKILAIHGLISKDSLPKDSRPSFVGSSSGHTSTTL
Protocol: (§2) Human CXCR2-expressing Flp-In™ CHO cells were harvested at ˜80% confluence washed once with PBS (Gibco, Cat #14190-094) and detached using Versene (Invitrogen, Cat #15040-033). Subsequently, cells were counted and centrifuged at 250×g for 5 min at 4° C. Afterwards, cells were diluted in Superblock (Thermo Fisher Perbio Science, Cat #37515) to a cell concentration of 2E+05-1E+06/mL and 100 μL/well were transferred to 96-well microtiter plate (Nunc, Cat#163320). Cells were once centrifuged, supernatant discarded and antibodies added at 1 μg/mL (unless stated otherwise), incubated for 1 h at 4° C. and washed twice with FACS buffer (PBS/3% FCS/0.02% NaN3). Binding of anti-CXCR2 antibodies was detected by incubation of Phycoerythrin-conjugated anti-human IgG (Dianova, Cat #109-116-097) for 1 h at 4° C. Samples were subsequently measured using FACS Array (Becton Dickinson).

[5] = target: T1, hu_CXCR2_N-term (1-17)-BSA; assay: ELISA, coated peptide-BSA, IgG1
Protocol: as §1

[6] = target: T2, N-terminal peptide aa1-48, BSA-coupled; assay: ELISA, coated peptide-BSA, IgG1
Protocol: as §1

[7] = target: T3, ECL3 peptide aa273-295, BSA-coupled; assay: ELISA, coated peptide-BSA, IgG1
Protocol: as §1

human CXCR2 [8] = target: T4, human CXCR2; assay: FACS, CXCR2 CHO Flp-In cells, IgG1
Protocol: as §2

Measured: binding result

T1 sequence (P02769 25-607 limits assumed): as the sequence (P02769 25-607 limits assumed) above

B1: CX2-Mab #7 (antibody, IgG1, V domains shown)
VH: QVQLLESGGGLVQPGGSLRLSCAASGFTFSRYWMSWVRQAPGKGLEWVSVISYSGSETYYADSVKGRFTISRDNSKNTLYLQMNSLRAEDTAVYYCARGRAYGYFDPWGQGTLVTVSS
VL: DIVLTQPPSVSGAPGQRVTISCSGSSSNIGKKTVSWYQQLPGTAPKLLIYRNNQRPSGVPDRFSGSKSGTSASLAITGLQAEDEADYYCQSTDSTTEIVFGGGTKLTVLG
binds: [1] | [2] | [3] | human CXCR2 [4]

B2: CX2-Mab #8 (antibody, IgG1, V domains shown)
VH: QVQLVQSGAEVKKPGESLKISCKGSGYSFTNYWIAWVRQMPGKGLEWMGIIDPSNSDTRYSPSFQGQVTISADKSISTAYLQWSSLKASDTAMYYCARGRYYGFFDYWGQGTLVTVSS
VL: DIVLTQPPSVSGAPGQRVTISCSGSSSNIGSTYVSWYQQLPGTAPKLLIYRNNNRPSGVPDRFSGSKSGTSASLAITGLQAEDEADYYCQVRALGTSSVVFGGGTKLTVLG
binds: [1] | [2] | [3] | human CXCR2 [4]

B3: CX2-Mab #1.2 (antibody, IgG1, V domains shown)
VH: QVQLVQSGAEVKKPGSSVKVSCKASGGTFSSYAISWVRQAPGQGLEWMGGIIPIVGEAKYAQKFQGRVTITADESTSTAYMELSSLRSEDTAVYYCARDSSGYDGYYAFAYWGQGTQVTVSS
VL: DIVLTQPPSVSGAPGQRGTISCSGSSSNIGSSSVNWYQQLPGTAPKLLIYRNNQRPSGVPDRFSGSKSGTSASLAITGLQAEDEADYYCATADQRGIVFGGGTKLTVLG
binds: [5] | [6] | [7] | human CXCR2 [8]
